From IntAct's records for PubMed 17347647

B1: Rho GTPase-activating protein 21 (Homo sapiens), Q5T5U3 (parent)
chain: MMATRRTGLSEGDGDKLKACEVSKNKDGKEQSETVSLSEDETFSWPGPKTVTLKRTSQGFGFTLRHFIVYPPESAIQFSYKDEENGNRGGKQRNRLEPMDTIFVKQVKEGGPAFEAGLCTGDRIIKVNGESVIGKTYSQVIALIQNSDTTLELSVMPKDEDILQVLQFTKDVTALAYSQDAYLKGNEAYSGNARNIPEPPPICYPWLPSAPSAMAQPVEISPPDSSLSKQQTSTPVLTQPGRAYRMEIQVPPSPTDVAKSNTAVCVCNESVRTVIVPSEKVVDLLSNRNNHTGPSHRTEEVRYGVSEQTSLKTVSRTTSPPLSIPTTHLIHQPAGSRSLEPSGILLKSGNYSGHSDGISSSRSQAVEAPSVSVNHYSPNSHQHIDWKNYKTYKEYIDNRRLHIGCRTIQERLDSLRAASQSTTDYNQVVPNRTTLQGRRRSTSHDRVPQSVQIRQRSVSQERLEDSVLMKYCPRSASQGALTSPSVSFSNHRTRSWDYIEGQDETLENVNSGTPIPDSNGEKKQTYKWSGFTEQDDRRGICERPRQQEIHKSFRGSNFTVAPSVVNSDNRRMSGRGVGSVSQFKKIPPDLKTLQSNRNFQTTCGMSLPRGISQDRSPLVKVRSNSLKAPSTHVTKPSFSQKSFVSIKDQRPVNHLHQNSLLNQQTWVRTDSAPDQQVETGKSPSLSGASAKPAPQSSENAGTSDLELPVSQRNQDLSLQEAETEQSDTLDNKEAVILREKPPSGRQTPQPLRHQSYILAVNDQETGSDTTCWLPNDARREVHIKRMEERKASSTSPPGDSLASIPFIDEPTSPSIDHDIAHIPASAVISASTSQVPSIATVPPCLTTSAPLIRRQLSHDHESVGPPSLDAQPNSKTERSKSYDEGLDDYREDAKLSFKHVSSLKGIKIADSQKSSEDSGSRKDSSSEVFSDAAKEGWLHFRPLVTDKGKRVGGSIRPWKQMYVVLRGHSLYLYKDKREQTTPSEEEQPISVNACLIDISYSETKRKNVFRLTTSDCECLFQAEDRDDMLAWIKTIQESSNLNEEDTGVTNRDLISRRIKEYNNLMSKAEQLPKTPRQSLSIRQTLLGAKSEPKTQSPHSPKEESERKLLSKDDTSPPKDKGTWRKGIPSIMRKTFEKKPTATGTFGVRLDDCPPAHTNRYIPLIVDICCKLVEERGLEYTGIYRVPGNNAAISSMQEELNKGMADIDIQDDKWRDLNVISSLLKSFFRKLPEPLFTNDKYADFIEANRKEDPLDRLKTLKRLIHDLPEHHYETLKFLSAHLKTVAENSEKNKMEPRNLAIVFGPTLVRTSEDNMTHMVTHMPDQYKIVETLIQHHDWFFTEEGAEEPLTTVQEESTVDSQPVPNIDHLLTNIGRTGVSPGDVSDSATSDSTKSKGSWGSGKDQYSRELLVSSIFAAASRKRKKPKEKAQPSSSEDELDNVFFKKENVEQCHNDTKEESKKESETLGRKQKIIIAKENSTRKDPSTTKDEKISLGKESTPSEEPSPPHNSKHNKSPTLSCRFAILKESPRSLLAQKSSHLEETGSDSGTLLSTSSQASLARFSMKKSTSPETKHSEFLANVSTITSDYSTTSSATYLTSLDSSRLSPEVQSVAESKGDEADDERSELISEGRPVETDSESEFPVFPTALTSERLFRGKLQEVTKSSRRNSEGSELSCTEGSLTSSLDSRRQLFSSHKLIECDTLSRKKSARFKSDSGSLGDAKNEKEAPSLTKVFDVMKKGKSTGSLLTPTRGESEKQEPTWKTKIADRLKLRPRAPADDMFGVGNHKVNAETAKRKSIRRRHTLGGHRDATEISVLNFWKVHEQSGERESELSAVNRLKPKCSAQDLSISDWLARERLRTSTSDLSRGEIGDPQTENPSTREIATTDTPLSLHCNTGSSSSTLASTNRPLLSIPPQSPDQINGESFQNVSKNASSAANAQPHKLSETPGSKAEFHPCL

Variants of: B1
Conditions: with arf1_mouse Arf1, P84078
Chain of arf1_mouse Arf1, P84078 (P84078 whole entry): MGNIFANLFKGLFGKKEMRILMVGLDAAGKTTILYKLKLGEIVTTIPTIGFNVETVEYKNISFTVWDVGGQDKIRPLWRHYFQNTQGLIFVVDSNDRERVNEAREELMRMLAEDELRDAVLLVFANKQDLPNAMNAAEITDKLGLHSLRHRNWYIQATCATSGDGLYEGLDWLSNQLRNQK

Row | effect of a mutation on the interaction | Variant
1 | decreasing interaction | I1054A

Variants of: B1
Conditions: with arf1_mouse Arf1, P84078
Remark: another data set of the same source

Row | effect of a mutation on the interaction | Variant
2 | decreasing interaction | Y1000A
